Article PMC9482650, “Quantitative fragmentomics allow affinity mapping of interactomes” (Nature Communications, 2022)

T1: APBA1_1, Q02410
T1 sequence (Q02410 651-752, limits assumed, looked up): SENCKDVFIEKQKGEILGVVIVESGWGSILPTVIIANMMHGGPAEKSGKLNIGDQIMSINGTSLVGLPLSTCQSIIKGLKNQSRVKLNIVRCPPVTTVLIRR

T2: MPP7, Q5T2T1
T2 sequence (Q5T2T1 134-230, limits assumed, looked up): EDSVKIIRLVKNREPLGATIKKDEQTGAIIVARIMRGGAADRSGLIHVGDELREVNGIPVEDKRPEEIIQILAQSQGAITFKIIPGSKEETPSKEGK

T3: PDZRN3_1, Q9UPQ7
T3 sequence (Q9UPQ7 244-349, limits assumed, looked up): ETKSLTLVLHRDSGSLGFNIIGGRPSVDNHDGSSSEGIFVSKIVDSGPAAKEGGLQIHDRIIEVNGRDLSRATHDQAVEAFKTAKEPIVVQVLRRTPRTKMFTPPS

T4: LIN7B, Q9HAP6
T4 sequence (Q9HAP6 88-185, limits assumed, looked up): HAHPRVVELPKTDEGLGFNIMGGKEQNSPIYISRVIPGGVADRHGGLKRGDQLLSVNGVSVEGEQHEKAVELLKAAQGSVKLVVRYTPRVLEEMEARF

T5: GRIP1_4, Q9Y3R0
T5 sequence (Q9Y3R0 467-571, limits assumed, looked up): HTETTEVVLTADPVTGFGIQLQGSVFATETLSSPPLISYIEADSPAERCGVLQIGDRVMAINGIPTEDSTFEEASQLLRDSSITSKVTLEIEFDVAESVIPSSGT

T6: DLG3_2, Q92796
T6 sequence (Q92796 221-321, limits assumed, looked up): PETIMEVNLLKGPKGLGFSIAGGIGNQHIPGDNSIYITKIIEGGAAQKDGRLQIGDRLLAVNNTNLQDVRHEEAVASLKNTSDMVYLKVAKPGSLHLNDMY

T7: GRIP1_3, Q9Y3R0
T7 sequence (Q9Y3R0 247-346, limits assumed, looked up): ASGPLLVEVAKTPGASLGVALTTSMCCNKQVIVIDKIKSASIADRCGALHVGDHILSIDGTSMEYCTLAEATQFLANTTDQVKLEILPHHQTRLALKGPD

T8: ARHGAP21, Q5T5U3
T8 sequence (Q5T5U3 45-169, limits assumed, looked up): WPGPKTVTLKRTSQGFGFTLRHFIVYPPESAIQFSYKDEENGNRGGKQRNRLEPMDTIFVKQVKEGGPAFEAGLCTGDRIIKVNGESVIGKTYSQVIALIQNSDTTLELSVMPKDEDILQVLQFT

T9: LIN7C, Q9NUP9
T9 sequence (Q9NUP9 88-185, limits assumed, looked up): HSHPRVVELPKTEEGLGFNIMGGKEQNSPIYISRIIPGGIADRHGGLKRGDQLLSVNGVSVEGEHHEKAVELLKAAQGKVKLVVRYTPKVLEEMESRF

T10: DFNB31_2, Q9P202
T10 sequence (Q9P202 274-371, limits assumed, looked up): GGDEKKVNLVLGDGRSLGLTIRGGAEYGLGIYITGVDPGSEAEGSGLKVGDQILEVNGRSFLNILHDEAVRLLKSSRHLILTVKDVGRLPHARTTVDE

T11: HTRA3, P83110
T11 sequence (P83110 354-453, limits assumed, looked up): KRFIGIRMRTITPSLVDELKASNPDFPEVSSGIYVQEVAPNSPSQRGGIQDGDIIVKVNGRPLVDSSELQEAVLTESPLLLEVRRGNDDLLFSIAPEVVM


How the values were obtained:
Test in all cases: holdup assay
Design in all cases: key: below the threshold = too weak to quantify, mostly under pKd 3.1 to 4
Conditions in all cases: plain residues with an end cap or a label only (N-terminal biotin on a linker: ado-ado)
FRMPD3, Q5JV73 = molecular target: FRMPD3, Q5JV73
FRMPD3, Q5JV73, sequence (Q5JV73 12-100): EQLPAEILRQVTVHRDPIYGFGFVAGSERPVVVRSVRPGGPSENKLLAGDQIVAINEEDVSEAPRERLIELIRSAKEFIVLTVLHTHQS

APBA1_1, Q02410 = molecular target: T1, APBA1_1, Q02410
Inadl_2, Q8NI35 = molecular target: Inadl_2, Q8NI35
Inadl_2, Q8NI35, sequence (Q8NI35 238-335): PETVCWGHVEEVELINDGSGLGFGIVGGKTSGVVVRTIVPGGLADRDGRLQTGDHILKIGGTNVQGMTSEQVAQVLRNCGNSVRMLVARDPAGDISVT

GORASP2, Q9H8Y8 = molecular target: GORASP2, Q9H8Y8
MPP7, Q5T2T1 = molecular target: T2, MPP7, Q5T2T1
GIPC2, Q8TF65 = molecular target: GIPC2, Q8TF65
GIPC2, Q8TF65, sequence (Q8TF65 112-203): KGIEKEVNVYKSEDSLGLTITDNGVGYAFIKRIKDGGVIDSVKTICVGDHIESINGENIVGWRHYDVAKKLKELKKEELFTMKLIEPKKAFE

PDZRN3_1, Q9UPQ7 = molecular target: T3, PDZRN3_1, Q9UPQ7
GORASP1, Q9BQQ3 = molecular target: GORASP1, Q9BQQ3
GORASP1, Q9BQQ3, sequence (Q9BQQ3 1-208): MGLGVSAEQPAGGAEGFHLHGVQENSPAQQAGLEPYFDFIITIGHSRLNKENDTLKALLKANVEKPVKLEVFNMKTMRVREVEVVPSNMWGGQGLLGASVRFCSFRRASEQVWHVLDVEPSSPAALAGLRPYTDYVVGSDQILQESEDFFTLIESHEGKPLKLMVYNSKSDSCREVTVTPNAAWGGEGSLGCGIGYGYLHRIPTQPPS

LIN7B, Q9HAP6 = molecular target: T4, LIN7B, Q9HAP6
GRIP1_4, Q9Y3R0 = molecular target: T5, GRIP1_4, Q9Y3R0
DLG3_2, Q92796 = molecular target: T6, DLG3_2, Q92796
GRIP1_3, Q9Y3R0 = molecular target: T7, GRIP1_3, Q9Y3R0
CASK, O14936 = molecular target: CASK, O14936
CASK, O14936, sequence (O14936 487-570): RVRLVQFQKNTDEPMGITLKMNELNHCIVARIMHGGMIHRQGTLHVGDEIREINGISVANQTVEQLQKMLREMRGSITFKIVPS

ARHGAP21, Q5T5U3 = molecular target: T8, ARHGAP21, Q5T5U3
LIN7C, Q9NUP9 = molecular target: T9, LIN7C, Q9NUP9
MAGI2_4, Q86UL8 = molecular target: MAGI2_4, Q86UL8
MAGI2_4, Q86UL8, sequence (Q86UL8 772-865): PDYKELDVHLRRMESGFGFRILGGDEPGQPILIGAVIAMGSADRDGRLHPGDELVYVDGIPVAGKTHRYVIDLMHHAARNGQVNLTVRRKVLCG

DLG4_1, P78352 = molecular target: DLG4_1, P78352
DLG4_1, P78352, sequence (P78352 62-152): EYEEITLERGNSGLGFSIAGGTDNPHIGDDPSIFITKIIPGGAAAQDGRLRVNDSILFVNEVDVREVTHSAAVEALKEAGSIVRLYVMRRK

GRID2IP_1, A4D2P6 = molecular target: GRID2IP_1, A4D2P6
GRID2IP_1, A4D2P6, sequence (A4D2P6 1-87): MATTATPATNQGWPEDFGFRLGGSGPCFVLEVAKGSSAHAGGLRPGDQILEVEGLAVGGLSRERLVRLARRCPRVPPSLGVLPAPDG

DFNB31_2, Q9P202 = molecular target: T10, DFNB31_2, Q9P202
LNX1_1, Q8TBB1 = molecular target: LNX1_1, Q8TBB1
LNX1_1, Q8TBB1, sequence (Q8TBB1 261-371): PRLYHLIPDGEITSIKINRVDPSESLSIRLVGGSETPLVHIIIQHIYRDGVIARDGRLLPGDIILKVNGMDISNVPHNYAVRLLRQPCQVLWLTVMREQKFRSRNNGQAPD

FRMPD4, Q14CM0 = molecular target: FRMPD4, Q14CM0
FRMPD4, Q14CM0, sequence (Q14CM0 67-160): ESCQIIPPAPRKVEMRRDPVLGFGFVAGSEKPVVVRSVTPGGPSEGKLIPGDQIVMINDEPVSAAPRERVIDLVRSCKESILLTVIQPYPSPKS

HTRA3, P83110 = molecular target: T11, HTRA3, P83110
NHERF4_2, Q86UT5 = molecular target: NHERF4_2, Q86UT5
NHERF4_2, Q86UT5, sequence (Q86UT5 220-308): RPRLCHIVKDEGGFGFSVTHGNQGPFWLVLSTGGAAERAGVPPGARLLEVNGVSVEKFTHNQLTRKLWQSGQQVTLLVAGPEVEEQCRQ

GRIP2_5, Q9C0E4 = molecular target: GRIP2_5, Q9C0E4
GRIP2_5, Q9C0E4, sequence (Q9C0E4 544-642): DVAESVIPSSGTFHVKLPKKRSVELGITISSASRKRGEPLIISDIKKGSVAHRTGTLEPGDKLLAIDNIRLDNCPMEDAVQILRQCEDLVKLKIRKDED

MAGI2_3, Q86UL8 = molecular target: MAGI2_3, Q86UL8
MAGI2_3, Q86UL8, sequence (Q86UL8 600-682): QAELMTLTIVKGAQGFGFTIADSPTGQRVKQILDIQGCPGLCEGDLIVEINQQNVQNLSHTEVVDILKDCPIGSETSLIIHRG

pKd (FRMPD3, Q5JV73)	pKd (APBA1_1, Q02410)	pKd (Inadl_2, Q8NI35)	pKd (GORASP2, Q9H8Y8)	pKd (MPP7, Q5T2T1)	pKd (GIPC2, Q8TF65)	pKd (PDZRN3_1, Q9UPQ7)	pKd (GORASP1, Q9BQQ3)	pKd (LIN7B, Q9HAP6)	pKd (GRIP1_4, Q9Y3R0)	pKd (DLG3_2, Q92796)	pKd (GRIP1_3, Q9Y3R0)	pKd (CASK, O14936)	pKd (ARHGAP21, Q5T5U3)	pKd (LIN7C, Q9NUP9)	pKd (MAGI2_4, Q86UL8)	pKd (DLG4_1, P78352)	pKd (GRID2IP_1, A4D2P6)	pKd (DFNB31_2, Q9P202)	pKd (LNX1_1, Q8TBB1)	Binder	further results
below the threshold	below the threshold	below the threshold	below the threshold	below the threshold	below the threshold	below the threshold	below the threshold	3.75	below the threshold	4.23	below the threshold	below the threshold	below the threshold	below the threshold	below the threshold	below the threshold	below the threshold	below the threshold	3.78	TLPRKRMSSI [GPRC6A, Q5T6X5]	pKd (FRMPD4, Q14CM0): below the threshold; pKd (HTRA3, P83110): below the threshold; pKd (NHERF4_2, Q86UT5): below the threshold; pKd (GRIP2_5, Q9C0E4): below the threshold; pKd (MAGI2_3, Q86UL8): below the threshold
below the threshold	below the threshold	below the threshold	below the threshold	below the threshold	below the threshold	below the threshold	below the threshold	below the threshold	below the threshold	below the threshold	below the threshold	below the threshold	below the threshold	3.97	below the threshold	3.49	below the threshold	below the threshold	below the threshold	TSSMRGMDAV [RSRC2, Q7L4I2]	pKd (FRMPD4, Q14CM0): below the threshold; pKd (HTRA3, P83110): below the threshold; pKd (NHERF4_2, Q86UT5): below the threshold; pKd (GRIP2_5, Q9C0E4): below the threshold; pKd (MAGI2_3, Q86UL8): below the threshold
below the threshold	below the threshold	below the threshold	5.16	3.61	below the threshold	below the threshold	4.85	below the threshold	below the threshold	below the threshold	below the threshold	below the threshold	below the threshold	below the threshold	below the threshold	below the threshold	below the threshold	below the threshold	below the threshold	QSPANIYYKV [EFNB1, P52799]	pKd (FRMPD4, Q14CM0): 3.8; pKd (HTRA3, P83110): below the threshold; pKd (NHERF4_2, Q86UT5): below the threshold; pKd (GRIP2_5, Q9C0E4): below the threshold; pKd (MAGI2_3, Q86UL8): below the threshold
